Experimental data from article PMC12499447, “API5 Phosphorylation Promotes Antiviral Immunity by Inhibiting Degradation of Cytosolic RNA Sensor RLRs” (Advanced Science, 2025).

Columns and labels:
[1] = target: p62 (UniProt Q13501); assay: co-IP; conditions: reference: API5 wild type; sites S464
[2] = target: RIG‐I (UniProt O95786); assay: co-IP; conditions: reference: API5 wild type; sites S464
[3] = target: MDA5 (UniProt Q9BYX4); assay: co-IP; conditions: reference: API5 wild type; sites S464
[4] = target: T1, His-SRPK1 (human (amplified from HEK293T cells), UniProt Q96SB4 1-655); assay: pull-down; purified GST-API5 (20 ng) or GST (20 ng) incubated with His-SRPK1 (50 ng) at 4 °C for 4 h; captured on GST resin; washed five times with NP-40 lysis buffer; immunoblot; conditions: both partners purified
T1 construct: SRPK1, full-length gene amplified from HEK293T cells, in pET-28a; also called pET-28a-SRPK1; source: E. coli BL21 (pLysS), purified (Ni-NTA)

| Molecule | binding against the reference [1] | binding against the reference [2] | binding against the reference [3] | binding result [4] |
| --- | --- | --- | --- | --- |
| API5 (from UniProt Q9BZZ5) API5 S464A | weaker | lost | lost | – |
| GST-API5 (natural protein, human, UniProt Q9BZZ5 1-524, looked up, API5, human, full-length gene amplified from HEK293T cells, in pGEX-4T-1; also called pGEX-4T-1-API5; source: E. coli BL21 (pLysS), purified (glutathione resin)) MPTVEELYRNYGILADATEQVGQHKDAYQVILDGVKGGTKEKRLAAQFIPKFFKHFPELADSAINAQLDLCEDEDVSIRRQAIKELPQFATGENLPRVADILTQLLQTDDSAEFNLVNNALLSIFKMDAKGTLGGLFSQILQGEDIVRERAIKFLSTKLKTLPDEVLTKEVEELILTESKKVLEDVTGEEFVLFMKILSGLKSLQTVSGRQQLVELVAEQADLEQTFNPSDPDCVDRLLQCTRQAVPLFSKNVHSTRFVTYFCEQVLPNLGTLTTPVEGLDIQLEVLKLLAEMSSFCGDMEKLETNLRKLFDKLLEYMPLPPEEAENGENAGNEEPKLQFSYVECLLYSFHQLGRKLPDFLTAKLNAEKLKDFKIRLQYFARGLQVYIRQLRLALQGKTGEALKTEENKIKVVALKITNNINVLIKDLFHIPPSYKSTVTLSWKPVQKVEIGQKRASEDTTSGSPPKKSSAGPKRDARQIYNPPSGKYSSNLGNFNYEQRGAFRGSRGGRGWGTRGNRSRGRLY | – | – | – | binds |
